Measured values from doi:10.1101/2022.08.14.503891 (bioRxiv, 2022).
Several values for one entry are separate records, joined by “and”; a condition that tells them apart may be missing. Equal values may be shown once.

Experiments:
mɑAXL (mouse) = assay: SPR
[1] = molecular target: human Quiescin Sulfhydryl Oxidase 1 (residues 34–546 of HsQSOX1) (human, UniProt O00391); assay: enzyme inhibition
[2] = molecular target: biotinylated lysozyme (GeneTex) (Gallus gallus (hen egg white), UniProt P00698, biotin); assay: flow cytometry on cells
[3] = molecular target: hen-egg white lysozyme (Sigma) (Gallus gallus (hen egg white), UniProt P00698); assay: SPR
Sequence of hen-egg white lysozyme (Sigma) (P00698 19-147): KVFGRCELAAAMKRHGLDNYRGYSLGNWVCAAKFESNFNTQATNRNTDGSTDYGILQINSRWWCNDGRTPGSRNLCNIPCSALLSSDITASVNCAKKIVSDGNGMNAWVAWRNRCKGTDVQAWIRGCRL

Sequence of biotinylated lysozyme (GeneTex) (P00698 19-147): as above
Sequence of human Quiescin Sulfhydryl Oxidase 1 (residues 34–546 of HsQSOX1) (O00391 34-546): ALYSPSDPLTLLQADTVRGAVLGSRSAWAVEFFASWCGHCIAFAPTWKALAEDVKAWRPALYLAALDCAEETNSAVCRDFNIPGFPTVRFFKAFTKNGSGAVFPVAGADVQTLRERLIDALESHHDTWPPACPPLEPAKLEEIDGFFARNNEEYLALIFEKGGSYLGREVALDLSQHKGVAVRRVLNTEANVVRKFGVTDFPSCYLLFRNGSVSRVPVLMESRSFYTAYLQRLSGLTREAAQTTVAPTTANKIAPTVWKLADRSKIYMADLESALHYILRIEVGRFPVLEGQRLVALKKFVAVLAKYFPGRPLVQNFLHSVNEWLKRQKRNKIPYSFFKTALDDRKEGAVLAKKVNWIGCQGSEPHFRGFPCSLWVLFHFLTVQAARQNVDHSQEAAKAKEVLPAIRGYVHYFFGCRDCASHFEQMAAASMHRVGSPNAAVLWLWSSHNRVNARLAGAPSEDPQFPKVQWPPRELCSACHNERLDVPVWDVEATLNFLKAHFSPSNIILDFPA

## AXL (R&D systems) (from UniProt P30530) (receptor)
mɑAXL (mouse)
  Kd: 0.00095 µM
  koff: 0.000524 s⁻¹
  kon: 550000 M⁻¹ s⁻¹

B1: murine monoclonal antibody mAb492.1 (antibody, V domains shown)
VH: QVQLKQSGPGLVAPSQSLSITCTVSGFSLTGYGVNWVRQSPGKGLEWLGMIWGDGRTDYKSALKSRLSITKDNSKSQVFLKMNSLQTDDTARYFCASDYYGSGSFAYWGQGTLVTVSA
VL: DVVMTQSHKFMSTSVGDRVSITCKASQDVSTAVAWYQQKSGQSPKLLIHSASYRYTGVPDRFTGSGSGTDFTFTISSVQAEDLAVYYCQQHYSIPLTFGAGTKLELK
[1]
  binding result: binds

B2: CUMAb design 6 of D44.1 formatted as scFv (scFv, V domains shown)
VH: EVQLVQSGAEVKKPGATVKISCKVSGYTFSTYWMEWVQQAPGKGLEWMGEVLPGSGSTYYAEKFQGRVTITADTSTDTAYMELSSLRSEDTAVYYCARGDGYFQHWGQGTLVTVSS
VL: EIVLTQSPDFQSVTPKEKVTITCRASQSISSNLHWYQQKPDQSPKLLIKYASQSFSGVPSRFSGSGSGTDFTLTINSLEAEDAATYYCHQSNSWPRTFGPGTKVDIK
[2]
  binding result: binds

B3: hɑHEWL Fab (design 1 as a human IgG1 Fab) (Fab, V domains shown)
VH: EVQLVQSGAEVKKPGATVKISCKVSGYTFSTYWMEWVQQAPGKGLEWMGEVLPGSGSTYYAEKFQGRVTITADTSTDTAYMELSSLRSEDTAVYYCARGDGYFQHWGQGTLVTVSS
VL: DIQMTQSPSSLSASVGDRVTITCRASQSISSNLNWYQQKPGKAPKLLIYYASSLQSGVPSRFSGSGSGTDFTLTISSLQPEDFATYYCQQSNSWPRTFGPGTKVDIK
[3]
  Kd: 0.042 µM and 0.044 µM
  koff: 0.16 s⁻¹
  kon: 3.9e+06 M⁻¹ s⁻¹
